The values that follow come from US20020156112A1, “Endostatin-like angiogenesis inhibition” (priority 2000, published 2002).

In one assay the test system is GST-bound colloids. As to the kind of experiment: Colloid/colloid linkage colour-change assay on NTA colloids, negative control protein (Example 7). In kind it is binding. The following applies: 100 ul or 50 ul protein; room temperature. How it is done:
(§1) 600 microliters colloids, derivatized with a self-assembled monolayer that presents nitrilo tri-acetic acid, NTA (for the capture of histidine-tagged proteins), was mixed with 60 microliters of 500 micromolar histidine-tagged RGD-motif-containing peptide. 600 microliters of a second set of NTA-Ni presenting colloids was mixed with 60 ul of a 500 uM solution of histidine-tagged GST, an irrelevant protein, as a negative control. Colloids were spun down and resuspended in phosphate buffer to remove residual unbound protein or peptide. Endostatin and Angiostatin, two proteins implicated in angiogenesis and suspected of binding to regions of vitronectin, such as the RGD peptide, were prepared by dialysis into phosphate-buffered saline solution and then 1:10 dilution into PBS from a stock concentration of 1 mg/mL.
(§2) 400 ul phosphate buffer (pH 7.4), 200 ul either RGD-bound colloids or GST-bound colloids, and either 100 ul endostatin or angiostatin, 50 ul endostatin or angiostatin/50 ul phosphate buffer, or 100 ul phosphate buffer (as a negative control) were added to each well of a crystallization dish. Color change was monitored over time at room temperature. […] The histidine-tagged proteins were then eluted using imidazole, and the samples were analyzed by SDS-PAGE.

Assay [1] has as its system RGD-peptide-bound colloids. Description: Colloid/colloid linkage colour-change assay on NTA colloids (Example 7). In kind it is binding. The settings on record: 100 ul or 50 ul protein; room temperature, after approximately 15 minutes. How it is done: as §1, §2
Assay [2] has as its system resin-immobilized RGD peptide. Description: NTA-Ni agarose resin binding verified by SDS-PAGE (Example 7). The settings on record: imidazole elution. How it is done: as §2, with “The color change was more pronounced in the well that contained 100 ul endostatin than in the well that contained 50 ul endostatin/50 ul phosphate buffer. […] The results were verified by gel electrophoresis. The RGD peptide and histidine-tagged GST were bound to a small amount of NTA-Ni agarose resin at saturating concentration. Endostatin was incubated with the resin and allowed to bind to the protein on the resin. The” for “The”

The next assay concerns GRGDS peptide. As to the kind of experiment: Gold colloid colour-change binding assay, RGD peptide colloids (Example 6). The following applies: endostatin 0.1 mg/mL; wells A1, A2. How it is done: (§3) 40 μM NTA gold colloids were prepared which presented the His-tagged RGD peptide (Sequence ID No.1, see Table 1). These colloids were mixed with endostatin (0.1 mg /mL) and turned blue, indicating binding of endostatin to the GRGDS peptide (A1, A2, FIG. 6). Control colloids presenting an irrelevant FLR-peptide (Sequence ID #2, see table 1) remained pink (wells A3, A4). At the highest concentration of vitronectin (0.1 mg /ml), the endostatin—GRGDS interaction is disrupted, and the well remains pink (B1). At lower concentrations of vitronectin, the endostatin—GRDS interaction is not affected and the wells turn blue (B2-B5).
Sequence of GRGDS peptide (as listed by the source): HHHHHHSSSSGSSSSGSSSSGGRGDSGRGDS

The test system of the next assay is resin-immobilized GST. As to the kind of experiment: NTA-Ni agarose resin binding verified by SDS-PAGE, control (Example 7). The following applies: imidazole elution. How it is done: as §2, with “The color change was more pronounced in the well that contained 100 ul endostatin than in the well that contained 50 ul endostatin/50 ul phosphate buffer. […] The results were verified by gel electrophoresis. The RGD peptide and histidine-tagged GST were bound to a small amount of NTA-Ni agarose resin at saturating concentration. Endostatin was incubated with the resin and allowed to bind to the protein on the resin. The” for “The”

A further assay addresses T1, irrelevant FLR-peptide (Homo sapiens, UniProt P15941, R1131P).
T1 construct: ID No. 2: FLR peptide
T1 sequence (P15941 with tags, fused parts or gaps R1131P): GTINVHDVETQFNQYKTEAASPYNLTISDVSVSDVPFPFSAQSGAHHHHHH
As to the kind of experiment: Gold colloid colour-change binding assay, control colloids (Example 6). The settings on record: endostatin 0.1 mg/mL; wells A3, A4. How it is done:
as §3

In assay [3] the test system is His-tagged GRGDS motif peptide. Description: NTA-Ni agarose pull-down with SDS PAGE of eluate and flow through (Example 2). The following applies: 0.1 mg/mL protein; imidazole (250 mM) elution. In kind it is binding. How it is done:
200 μL NTA-Ni agarose (Qiagen) were washed 2× with 100 μL ddH20, then with wash buffer A, containing 50 mM NaH2PO4, 300 mM NaCl, and 10 mM imidazole at pH 8.0.
A synthetic peptide, was dissolved in DMSO then diluted in phosphate buffer to a final concentration of 1 mM. 100 μL of this peptide solution was incubated with the NTA-Ni resin for 20 minutes at room temperature to allow binding of the histidine-tagged peptide to the NTA-Ni resin. The resin was then pelleted and the supernatant was removed. The resin was washed in buffer A. The peptide bound resin was then divided into two aliquots. A first aliquot was mixed with 100 μL human recombinant endostatin (0.1 mg/mL in 10 mM sodium phosphate buffer, 100 mM sodium chloride, pH 7.4, diluted from stock endostatin, Calbiochem 324746). A second aliquot was mixed with 100 μL human angiostatin, Calbiochem 176700(0.1 mg/mL in 10 mM sodium phosphate buffer, 100 mM sodium chloride, pH 7.4. The beads and angiogenesis inhibitors were incubated on ice 15-20 minutes to allow binding to the bead-immobilized peptide. The resin was then pelleted. The supernatants were removed and reserved for analysis by SDS PAGE (flow through). The beads were then washed 2× with 10 mM sodium phosphate buffer. The histidine-tagged peptides and any immobilized drug were eluted by the addition of 4 aliquots of an imidazole (250 mM) wash.

Sequence of His-tagged GRGDS motif peptide (as listed by the source): as the sequence (as listed by the source) above
Sequence of resin-immobilized RGD peptide (as listed by the source): as the sequence (as listed by the source) above

B1: endostatin: human recombinant endostatin (Calbiochem 324746), known angiogenesis inhibitor protein, a dimer in its functional form (protein, UniProt P39060 1572-1754, looked up)
Endostatin: HSHRDFQPVLHLVALNSPLSGGMRGIRGADFQCFQQARAVGLAGTFRAFLSSRLQDLYSIVRRADRAAVPIVNLKDELLFPSWEALFSGSEGPLKPGARIFSFDGKDVLRHPTWPQKSVWHGSDPNGRRLTESYCETWRTEAPSATGQASSLLGGRLLGQSAASCHHAYIVLCIENSFMTASK
modifications: Endostatin
As to B1, the “colour change of GST-bound colloids” value in the assay on GST-bound colloids is listed as “No color change”. Also, the “colour change of RGD-peptide-bound colloids” value in assay [1] was “color change from red to blue”. Besides, the “binding to resin-immobilized RGD peptide (SDS-PAGE)” value in assay [2] was “bound”. Besides, the “colloid colour (binding to GRGDS peptide)” value in the assay with GRGDS peptide is “turned blue”. The “binding to resin-immobilized GST (SDS-PAGE)” value in the assay on resin-immobilized GST is on record as “did not bind”. Moreover, the “colloid colour (binding to FLR peptide)” value with irrelevant FLR-peptide is on record as “remained pink”. Further, the “co-elution with GRGDS motif peptide (SDS PAGE)” value in assay [3] is reported as “co-eluted”.

B2: angiostatin: human angiostatin, Calbiochem 176700, angiogenesis inhibitor protein (protein)
chain: YLSECKTGNGKNYRGTMSKTKNGITCQKWSSTSPHRPRFSPATHPSEGLEENYCRNPDNDPQGPWCYTTDPEKRYDYCDILECEEECMHCSGENYDGKISKTMSGLECQAWDSQSPHAHGYIPSKFPNKNLKKNYCRNPDRELRPWCFTTDPNKRWELCDIPRCTTPPPSSGPTYQCLKGTGENYRGNVAVTVSGHTCQHWSAQTPHTHNRTPENFPCKNLDENYCRNPDGKRAPWCHTTNSQVRWEYCKIPSCDSSPVSTEQLAPTAPPELTPVVQDCYHGDGQSYRGTSSTTTTGKKCQSWSSMTPHRHQKTPENYPNAGLTMNYCRNPDADKGPWCFTTDPSVRWEYCNLKKCSGTEA
For the molecule B2, the “colour change of GST-bound colloids” value in the assay with GST-bound colloids is recorded as “No color change”. Further, the “colour change of RGD-peptide-bound colloids” value in assay [1] was “No color change”. For the same molecule, in assay [3], the “co-elution with GRGDS motif peptide (SDS PAGE)” value is reported as “did not”.
